# What was measured:
# [1] = tested on: atrial thrombi and injured left atrium; parameters: species or system Yorkshire swine; settings: in vivo
# Procedure: • A. Animal Preparation - LA Vascular Thrombi. […] Continuous electrocardiographic monitoring was instituted using alligator clip electrodes. […] The incision was held open by a thoracotomy retractor. […] The cross-clamp was removed 10 minutes later. […] The intravenous line was then flushed with saline. […] Res. Commun. 80: 849-57, 1978). […] Image acquisition was performed as described below. […] A final blood sample was taken for well counting. […] Open Chest Sham. […] Closed Chest Sham. In seven animals, an ear intravenous line was established. No thoracotomy was performed. […] Ovalbumin. […] Indium Platelets. […] J. Cardiol. […] Non-specific Tc-Labeled Antibody. […] Imaging. […] The cobalt marker was then removed. […] These were followed by a 10 minute tomographic acquisition. […] Each image was scored as positive, equivocal or negative. […] Each vial was counted for 1 minute.
# For the injured tissues and thrombi, multiple specimens were usually taken from the same animal. In those cases, the maximum ratio for any one specimen is reported, as well as the average of all specimens taken. The maximum for each animal was averaged across all animals and is reported as the Maximum Anx-V Ratio.
# [2] = in vivo
# Procedure: • A. Animal Preparation - LA Vascular Thrombi. Fasting 25-30 kg Yorkshire swine were sedated with intramuscular Telazol (5-10 mg/kg) (commercially available from AVECO Co.) and commercially available Atropine (1 mg, Elkins-Sinn, Inc., Cherry Hill, NJ). Surital (200 mg) (commercially available from Abbott Laboratories) anaesthesia was administered intravenously. The animals were intubated and given inhalation anaesthesia of 1.5-2% halothane (commercially available from Abbott Laboratories) and O2 sufficient to obtain a deep level of anesthesia and physiologic arterial blood gases. Continuous electrocardiographic monitoring was instituted using alligator clip electrodes. A cut down in the neck region was conducted, and an 8 french catheter (USCI Co, Billerica, MA) was placed in the right common carotid artery for blood pressure and arterial blood gas monitoring as well as for blood sampling. The swine were placed in a right lateral decubitus position, and a lateral thoracotomy was performed to expose the heart. The incision was held open by a thoracotomy retractor. The pericardium was opened, and the left atrial appendage was isolated from the left atrium by a vascular cross- clamp. Rubber tipped forceps were used to gently crush the appendage. Five minutes later, ricinoleate (1 mg, ICN Pharmaceuticals, Costa Mesa, CA) and thrombin (50 mg, Johnson and Johnson Co., Arlington, Texas) were injected into the LAA (left atrial appendage) using a 27 Ga needle. The cross-clamp was removed 10 minutes later. One hour after the crush injury, Tc-99m-annexin V, prepared in accordance with Example I above, was administered as an intravenous bolus dose in an ear vein. The intravenous line was then flushed with saline. In 7 animals, I-125 labeled ovalbumin was administered as a non-specific control preparable, for example, by the procedure described by Fraker et al., Biochem. Biophys. Res. Commun. 80: 849-57, 1978). Briefly, I-125-radiolabeled ovalbumin was prepared by the Iodogen method, employing 600 µg ovalbumin (Sigma Chemical Co., St. Louis, Missouri) and NaI-125 (2mCi, 0.92 nmol). Image acquisition was performed as described below. At the end of the experimental procedure (generally about 150 minutes), the animals were sacrificed by an intravenous bolus dose of 80 mEq of KCl while the animals were still under general anaesthetic. A final blood sample was taken for well counting. The heart was rapidly excised, washed free of blood and dissected into samples for well counting. Additional samples of carotid artery, lung, liver, spleen, muscle and kidney were obtained in some animals. • B. Controls. Five different types of controls were used: open chest sham; closed chest sham; ovalbumin; indium platelets; and non-specific Tc-99m-labeled antibody. • 1. Open Chest Sham. In three animals, the heart was exposed as above, but the left atrium was not isolated, crushed or injected with ricinoleate/thrombin. Marker images with a cobalt marker were performed as described below, and the Tc-99m-annexin V was injected 30-60 minutes after LAA exposure. Imaging and sample acquisition were identical to that described in A above. • 2. Closed Chest Sham. In seven animals, an ear intravenous line was established. No thoracotomy was performed. Sedation and anesthesia were identical to that described in A above. The Tc-99m-annexin V (+/other control radionuclides, such as I-125 ovalbumin or In-111-platelets) was administered and image acquisition was performed. • 3. Ovalbumin. I-125 ovalbumin was administered in 7 animals as a negative control protein. […] Indium Platelets. In-111 platelet labeling was performed in 7 animals as a positive well counting label. In-111 radiolabeled platelets were prepared in accordance with the procedure described by Stratton et al., Am. J. Cardiol. 47: 874, 1981 and Stratton et al., Circulation 69: 561, 1984. Imaging was not attempted because of the long serum half-life of the In-111-platelets. • 5. Non-specific Tc-Labeled Antibody. […]
# [3] = tested on: freshly isolated human platelets; assay: competition assay: inhibition of binding of unmodified 125I radiolabeled annexin V to platelets
# Procedure: The ability of galactose-modified annexin V to bind to activated platelets was assessed by determining its ability to inhibit the binding of unmodified, ^125I radiolabeled annexin V to freshly isolated human platelets, following the method of Thiagarajan and Tait J. Biol. Chem. 265: 17240-43, 1990.
Molecule,highest non-target localization [1],%ID/g a [2] [%ID/g],%ID/g b [2] [%ID/g],ID/g cleared in the slower b phase [2] [%],a + b [2],t1/2 a [2] [min],t1/2 b [2] [min],"Competition (% of control) ([3]; absolute value (left column), inhibition of 125I annexin V binding to human platelets)",Competition (% of control) ([3]; value normalized to 100% for unmodified annexin V (right column))
Tc-99m-annexin V: annexin V radiolabeled with Tc-99m by a diamide dimercaptide N2S2 chelate (Example I),kidney,0.0389,0.0300,43,0.0689,9.6,46,,
"1.1: galactose-modified annexin V, substitution ratio 1.1:1 (offering ratio 75:1) (conjugate, UniProt P08758 2-320, looked up, galactose-modified) Annexin A5: AQVLRGTVTDFPGFDERADAETLRKAMKGLGTDEESILTLLTSRSNAQRQEISAAFKTLFGRDLLDDLKSELTGKFEKLIVALMKPSRLYDAYELKHALKGAGTNEKVLTEIIASRTPEELRAIKQVYEEEYGSSLEDDVVGDTSGYYQRMLVVLLQANRDPDAGIDEAQVEQDAQALFQAGELKWGTDEEKFITIFGTRSVSHLRKVFDKYMTISGFQIEETIDRETSGNLEQLLLAVVKSIRSIPAYLAETLYYAMKGAGTDDHTLIRVMVSRSEIDLFNIRKEFRKNFATSLYSMIKGDTSGDYKKALLLLCGEDD",,,,,,,,21.4 % of control,28.7 % of control
